Laboratory results as given in the RNAGym collection of RNA variant scans (doi:10.7554/elife.80360).

B1: Hairpin Ribozyme (parent)
chain: GUCCUCUUUCACGUGCGCGUGAAAGAGAGAAGUGAACCAGAGAAACACACGUUGUGGUAUAUUACCUGGUA

Variants of: B1
Assay: self-cleavage, relative activity (ratio to wild type); higher = more cleavage; co-transcriptional

Variant	self-cleavage
GUCCUCUUUCACGUGCGCGUGAAAGAGAGAAGUGAACCAGAGAUACACACGUUGUGGUAUAUUAACUGGUA	0.184
GUCCUCUUUCACGUGCGCGUGAAAGAGAGAAGUGAACCAGAGAUACACACGUUGUGGUAUAUUAGCUGGUA	0.178
GUCCUCUUUCACGUGCGCGUGAAAGAGAGAAGUGAACCAGAGAGACACACGUUGUGGUAUAUUACCUUGUA	0.173
GUCCUCUUUCACGUGCGCGUGAAAGAGAGAAGUGAACCAGAGAGACACACGUUGUGGUAUAUUACCUGAUA	0.0936
GUCCUCUUUCACGUGCGCGUGAAAGAGAGAAGUGAACCAGAGAGACACACGUUGUGGUAUAGUACCUGGUA	0.207
GUCCUCUUUCACGUGCGCGUGAAAGAGAGAAGUGAACCAGAGAGACACACGUUGUGGUAUAAUACCUGGUA	0.0675
GUCCUCUUUCACGUGCGCGUGAAAGAGAGAAGUGAACCAGAGAGACACACGUUGUGGUACAUUACCUGGUA	0.0999
GUCCUCUUUCACGUGCGCGUGAAAGAGAGAAGUGAACCAGAGAGACACACGUUGUGGUAGAUUACCUGGUA	0.0699
GUCCUCUUUCACGUGCGCGUGAAAGAGAGAAGUGAACCAGAGAGACACACGUUGUGGUAUAUUACCUGGUC	0.143
GUCCUCUUUCACGUGCGCGUGAAAGAGAGAAGUGAACCAGAGAUACGCACGUUGUGGUAUAUUACCUGGUA	0.0154
GUCCUCUUUCACGUGCGCGUGAAAGAGAGAAGUGAACCAGAGAUACAUACGUUGUGGUAUAUUACCUGGUA	0.15
GUCCUCUUUCACGUGCGCGUGAAAGAGAGAAGUGAACCAGAGAUACACACGUUGUGGUAUUUUACCUGGUA	0.124
GUCCUCUUUCACGUGCGCGUGAAAGAGAGAAGUGAACCAGAGAUACACACGUUGUGGUAUCUUACCUGGUA	0.0833
GUCCUCUUUCACGUGCGCGUGAAAGAGAGAAGUGAACCAGAGAUACACACGUUGUGGUAUAUUGCCUGGUA	0.202
GUCCUCUUUCACGUGCGCGUGAAAGAGAGAAGUGAACCAGAGAGACAAACGUUGUGGUAUAUUACCUGGUA	0.102
GUCCUCUUUCACGUGCGCGUGAAAGAGAGAAGUGAACCAGAGAGACACACGUUGUGGAAUAUUACCUGGUA	0.17
GUCCUCUUUCACGUGCGCGUGAAAGAGAGAAGUGAACCAGAGAGACACACGUUGUGGUAUAUUACAUGGUA	0.022
GUCCUCUUUCACGUGCGCGUGAAAGAGAGAAGUGAACCAGAGAGACACACAUUGUGGUAUAUUACCUGGUA	0.123
GUCCUCUUUCACGUGCGCGUGAAAGAGAGAAGUGAACCAGAGAGACACACUUUGUGGUAUAUUACCUGGUA	0.175

Variant	self-cleavage
GUCCUCUUUCACGUGCGCGUGAAAGAGAGAAGUGAACCAGAGAGACACACCUUGUGGUAUAUUACCUGGUA	0.238
GUCCUCUUUCACGUGCGCGUGAAAGAGAGAAGUGAACCAGAGAUACACACGUUUUGGUAUAUUACCUGGUA	0.0855
GUCCUCUUUCACGUGCGCGUGAAAGAGAGAAGUGAACCAGAGAUACACACGUUCUGGUAUAUUACCUGGUA	0.0888
GUCCUCUUUCACGUGCGCGUGAAAGAGAGAAGUGAACCAGAGAGAUACACGUUGUGGUAUAUUACCUGGUA	0.139
GUCCUCUUUCACGUGCGCGUGAAAGAGAGAAGUGAACCAGAGAGAAACACGUUGUGGUAUAUUACCUGGUA	0.184
GUCCUCUUUCACGUGCGCGUGAAAGAGAGAAGUGAACCAGAGAUACACACGUUGUGGUAUAUUACCUGGUG	0.293
GUCCUCUUUCACGUGCGCGUGAAAGAGAGAAGUGAACCAGAGAUACACUCGUUGUGGUAUAUUACCUGGUA	0.109
GUCCUCUUUCACGUGCGCGUGAAAGAGAGAAGUGAACCAGAGAUACACGCGUUGUGGUAUAUUACCUGGUA	0.0827
GUCCUCUUUCACGUGCGCGUGAAAGAGAGAAGUGAACCAGAGAUACACACGUUGUUGUAUAUUACCUGGUA	0.231
GUCCUCUUUCACGUGCGCGUGAAAGAGAGAAGUGAACCAGAGAUAAACACGUUGUGGUAUAUUACCUGGUA	0.116
GUCCUCUUUCACGUGCGCGUGAAAGAGAGAAGUGAACCAGAGAGACACACGUUGUGGUAUAUUACCUGGCA	0.262
GUCCUCUUUCACGUGCGCGUGAAAGAGAGAAGUGAACCAGAGAGACACACGUUGUGGUAUAUAACCUGGUA	0.207
GUCCUCUUUCACGUGCGCGUGAAAGAGAGAAGUGAACCAGAGAGACACACGGUGUGGUAUAUUACCUGGUA	0.231
GUCCUCUUUCACGUGCGCGUGAAAGAGAGAAGUGAACCAGAGAUACACACGUUGUGGUCUAUUACCUGGUA	0.173
GUCCUCUUUCACGUGCGCGUGAAAGAGAGAAGUGAACCAGAGAUGCACACGUUGUGGUAUAUUACCUGGUA	0.102
GUCCUCUUUCACGUGCGCGUGAAAGAGAGAAGUGAACCAGAGAUUCACACGUUGUGGUAUAUUACCUGGUA	0.229
GUCCUCUUUCACGUGCGCGUGAAAGAGAGAAGUGAACCAGAGAGACACACGUCGUGGUAUAUUACCUGGUA	0.248
GUCCUCUUUCACGUGCGCGUGAAAGAGAGAAGUGAACCAGAGAGACACACGUUAUGGUAUAUUACCUGGUA	0.151
GUCCUCUUUCACGUGCGCGUGAAAGAGAGAAGUGAACCAGAGAGACACAGGUUGUGGUAUAUUACCUGGUA	0.164
